Laboratory results reported in paper PMC4157841, “Ethylmalonic Encephalopathy ETHE1 R163W/R163Q Mutations Alter Protein Stability and Redox Properties of the Iron Centre” (PLoS ONE, 2014).
Residue numbers refer to the chain shown, from its start. Names may count otherwise.

B1: Human ETHE1 wild type (enzyme, UniProt O95571 8-254, looked up)
chain: VARRQLSQRGGSGAPILLRQMFEPVSCTFTYLLGDRESREAVLIDPVLETAPRDAQLIKELGLRLLYAVNTHCHADHITGSGLLRSLLPGCQSVISRLSGAQADLHIEDGDSIRFGRFALETRASPGHTPGCVTFVLNDHSMAFTGDALLIRGCGRTDFQQGCAKTLYHSVHEKIFTLPGDCLIYPAHDYHGFTVSTVEEERTLNPRLTLSCEEFVKIMGNLNLPKPQQIDFAVPANMRCGVQTPTA
notes: Holds about 1 mol iron per mol protein; also called ETHE1-WT; wild-type ETHE1; source: E. coli Bl21 DE3, purified (His-trap HP, Superdex 75 size exclusion)
B2: Human ETHE1-p.Arg163Trp (enzyme, UniProt O95571 8-254, looked up)
chain: B1 chain with R156W
notes: also called ETHE1 R163W; source: E. coli Bl21 DE3, purified (His-trap HP, Superdex 75 size exclusion)
B3: Human ETHE1-p.Arg163Gln (enzyme, UniProt O95571 8-254, looked up)
chain: B1 chain with R156Q
notes: also called ETHE1 R163Q; source: E. coli Bl21 DE3, purified (His-trap HP, Superdex 75 size exclusion)

Biological target: the molecule itself
Test: SEC; Superdex 75 in 50 mM Tris-HCl pH 7.5, 150 mM NaCl, column calibrated with standard proteins; native molecular mass determined; data not shown

Stoichiometry N, 2:
B1, B2, B3
